The values below come from article PMC10198636 (Science Advances, 2023).

For this assay, the target named is Cul3(N), recombinant N-terminal domain of human Cul3 (human, UniProt Q13618 1-417). In words: ITC.
Cul3(N), recombinant N-terminal domain of human Cul3, sequence (Q13618 1-417): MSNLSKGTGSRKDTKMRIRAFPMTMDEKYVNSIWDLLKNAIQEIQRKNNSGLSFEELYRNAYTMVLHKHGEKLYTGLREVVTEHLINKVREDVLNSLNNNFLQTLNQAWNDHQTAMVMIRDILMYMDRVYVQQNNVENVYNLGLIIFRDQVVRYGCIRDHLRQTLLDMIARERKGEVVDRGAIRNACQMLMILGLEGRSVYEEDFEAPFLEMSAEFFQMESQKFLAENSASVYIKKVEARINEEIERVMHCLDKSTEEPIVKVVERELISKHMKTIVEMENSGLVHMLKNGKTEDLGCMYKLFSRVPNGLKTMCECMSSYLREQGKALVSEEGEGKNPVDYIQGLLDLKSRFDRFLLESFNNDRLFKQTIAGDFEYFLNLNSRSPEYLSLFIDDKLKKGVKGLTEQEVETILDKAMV

B1: Keap1(N), recombinant N-terminal portion of human Keap1 spanning the BTB and BACK domains (domain or fragment)
chain: MQPDPRPSGAGACCRFLPLQSQCPEGAGDAVMYASTECKAEVTPSQHGNRTFSYTLEDHTKQAFGIMNELRLSQQLCDVTLQVKYQDAPAAQFMAHKVVLASSSPVFKAMFTNGLREQGMEVVSIEGIHPKVMERLIEFAYTASISMGEKCVLHVMNGAVMYQIDSVVRACSDFLVQQLDPSNAIGIANFAEQIGCVELHQRAREYIYMHFGEVAKQEEFFNLSHCQLVTLISRDDLNVRCESEVFHACINWVKYDCEQRRFYVQALLRAVRCHSLTPNFLQMQLQKCEILQSDSRCKDYLVKIFEELT
On to B1, for which the Kd worked out at 562 nM.

B2: KLHL3(N), recombinant N-terminal portion of human KLHL3 spanning the BTB and BACK domains (domain or fragment)
chain: MEGESVKLSSQTLIQAGDDEKNQRTITVNPAHMGKAFKVMNELRSKQLLCDVMIVAEDVEIEAHRVVLAACSPYFCAMFTGDMSESKAKKIEIKDVDGQTLSKLIDYIYTAEIEVTEENVQVLLPAASLLQLMDVRQNCCDFLQSQLHPTNCLGIRAFADVHTCTDLLQQANAYAEQHFPEVMLGEEFLSLSLDQVCSLISSDKLTVSSEEKVFEAVISWINYEKETRLEHMAKLMEHVRLPLLPRDYLVQTVEEEALIKNNNTCKDFLIEAMKYHLLP
Take B2: the Kd amounted to 13.8 nM.
